For test [1], the target named is biotinylated single chain human FcRn (beta-2-microglobulin-human FcRn fusion polypeptide with (GGGGS)4-peptidic linker and C-terminal His(10)-Avi-tag) (human) (UniProt P61769). Description: SPR, C1 chip, scFcRn about 80 RU, Interaction Map spot; 400 mM NaCl; intramolecular binding 1+2+1+2. (In general: Surface plasmon resonance follows binding to a sensor surface in real time, without labels.)

Test [2] has the same target. Briefly: SPR, C1 chip, scFcRn about 80 RU, Interaction Map spot; 150 mM NaCl; intramolecular binding 1+2.
The target is the same in test [3]. Description: SPR, C1 chip, scFcRn about 80 RU, Interaction Map spot; 150 mM NaCl; intermolecular binding 1+2′.
Test [4] shares this target. Description: SPR, C1 chip, scFcRn about 80 RU, Interaction Map spot; 150 mM NaCl; intermolecular binding 1+1′.
Test [5] shares this target. Briefly: SPR, C1 chip, scFcRn about 80 RU, Interaction Map spot; 400 mM NaCl; intermolecular binding 1+1′.
For test [6] the target is unchanged. Briefly: SPR, C1 chip, scFcRn about 80 RU, Interaction Map spot; 400 mM NaCl and 20% (w/w) ethylene glycol; intramolecular binding 1+2.
Test [7] shares this target. Description: SPR, C1 chip, scFcRn about 80 RU, Interaction Map spot; 400 mM NaCl; intramolecular binding 1+2.
For test [8] the target is unchanged. Description: SPR, C1 chip, scFcRn about 80 RU, Interaction Map spot; 400 mM NaCl and 20% (w/w) ethylene glycol; intermolecular binding 1+1′.
For test [9] the target is unchanged. Briefly: SPR, C1 chip, scFcRn about 80 RU, Interaction Map spot; 150 mM NaCl; intramolecular binding 1+2+1+2.
Test [10] shares this target. Briefly: SPR, C1 chip, scFcRn about 80 RU, Interaction Map spot; 400 mM NaCl; intermolecular binding 1+2′.
The target is the same in test [11]. Description: SPR, scFcRn on C1 chip, Interaction Map spot; 150 mM NaCl; intramolecular (FIG. 16 spot 1).
Test [12] shares this target. Briefly: SPR, scFcRn on C1 chip, Interaction Map spot; 400 mM NaCl; intermolecular, second of two spots.
Test [13] shares this target. Briefly: SPR, scFcRn on C1 chip, Interaction Map spot; 400 mM NaCl; intramolecular.
Test [14] shares this target. Briefly: SPR, scFcRn on C1 chip, Interaction Map spot; 150 mM NaCl; intermolecular (FIG. 16 spot 2).
For test [15] the target is unchanged. Briefly: SPR, scFcRn on C1 chip, Interaction Map spot; 400 mM NaCl; intermolecular, first of two spots.
For test [16] the target is unchanged. Briefly: SPR, C1 chip, scFcRn about 80 RU, Interaction Map spot; 400 mM NaCl; intermolecular.
Test [17] has the same target. Briefly: SPR, C1 chip, scFcRn amine-coupled about 80 RU, antibody as analyte, Interaction Map spot; 150 mM NaCl; intramolecular (FIG. 16 spot 1).
Test [18] shares this target. Description: SPR, C1 chip, scFcRn about 80 RU, Interaction Map spot; 400 mM NaCl; intramolecular.
For test [19] the target is unchanged. Description: SPR, C1 chip, scFcRn amine-coupled about 80 RU, antibody as analyte, Interaction Map spot; 150 mM NaCl; intermolecular (FIG. 16 spot 2).
The target is the same in test [20]. Description: SPR, scFcRn on C1 chip, Interaction Map spot; 400 mM NaCl; intermolecular.

biotinylated single chain human FcRn (beta-2-microglobulin-human FcRn fusion polypeptide with (GGGGS)4-peptidic linker and C-terminal His(10)-Avi-tag) (human), sequence (P61769 other isoform, or with tags, fused parts or gaps limits assumed): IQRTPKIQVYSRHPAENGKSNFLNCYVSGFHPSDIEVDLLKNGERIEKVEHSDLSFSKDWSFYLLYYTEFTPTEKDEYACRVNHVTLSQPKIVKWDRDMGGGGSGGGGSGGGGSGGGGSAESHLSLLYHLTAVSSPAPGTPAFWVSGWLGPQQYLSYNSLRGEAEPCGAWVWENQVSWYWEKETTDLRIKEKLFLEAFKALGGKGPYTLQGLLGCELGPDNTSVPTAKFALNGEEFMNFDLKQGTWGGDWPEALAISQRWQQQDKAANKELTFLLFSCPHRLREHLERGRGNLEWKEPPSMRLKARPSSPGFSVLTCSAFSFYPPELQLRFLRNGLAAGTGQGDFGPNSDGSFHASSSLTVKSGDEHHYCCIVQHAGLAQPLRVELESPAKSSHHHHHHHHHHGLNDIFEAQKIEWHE

By Kd is commonly meant the free concentration of one partner at which half of the binding sites on the other are occupied at equilibrium, for simple one-to-one binding. A high value points to weaker binding. On to “anti-digoxygenin Fabs connected to a wild-type IgG1 Fc-region (from UniProt P01857 104-330) (antibody)”, for which the Kd in test [1] worked out at 0.33 nM; in test [2], 382 nM; in test [3], 5.7 nM; in test [4] it was 126 nM; in test [5], 100 nM; in test [6] it was 1140 nM. Also, the Kd was found to be 840 nM in [7], 75 nM in test [8], 0.16 nM in test [9] and 4.8 nM in [10].
For “asymmetric antibody with the mutations I253A/H310A/H435A in one Fc-region polypeptide and the mutations T307H/N434H in the respective other Fc-region polypeptide (from UniProt P01857 104-330; P01857 104-330)”, the Kd in test [11] was determined as 391 nM; in [12] it was 39 nM; in [13], 325 nM; in test [14], 10.4 nM; in test [15] it was 4.3 nM.
As for “anti-digoxygenin-Fabs added to the Fc-region with a single FcRn binding site (mutations I253A/H310A/H435A in one Fc-region polypeptide and wild-type in the respective other Fc-region polypeptide) (from UniProt P01857 104-330; P01857 104-330) (antibody)”, the Kd came to 60 nM in test [16], 1250 nM in test [17], 1060 nM in test [18] and 20.5 nM in [19].
As to “anti-digoxygenin Fabs connected to an IgG1 Fc-region with the mutations T307H/N434H in both Fc-region polypeptides (from UniProt P01857 104-330) (antibody)”, the equilibrium dissociation constant (Kd) in test [1] came out at 0.13 nM; in test [2] it was 177 nM; in [3], 3 nM; in [4], 71 nM; in [5], 25 nM; in [7], 156 nM. The Kd in [9] worked out at 0.12 nM.
In the case of “anti-digoxygenin Fabs connected to an IgG1 Fc-region with the mutations M252Y/S254T/T256E in both Fc-region polypeptides (from UniProt P01857 104-330) (antibody)”, the values for the Kd in test [1], in [2] and in test [7] were 1.6 nM, 92 nM and 92 nM, respectively.
Regarding “asymmetric antibody with the mutations I253A/H310A/H435A in one Fc-region polypeptide and the mutations M252Y/S254T/T256E in the respective other Fc-region polypeptide (from UniProt P01857 104-330; P01857 104-330)”, the Kd came out at 184 nM in [11], 6.2 nM in [20], 166 nM in test [13] and 4.7 nM in test [14].

For the origin of these results see patent US20240019424A1.
